Patent publication US20130288305A1 (AVEO PHARMACEUTICALS, published 2013)
Numbering of substitutions follows the chain as printed. Blank lines part the entries; values can stand above or below the binder they belong to.

What was measured:
[1] = target: T1, recombinant human FGFR2 beta (IIIb)/Fc in which the Fc region was removed enzymatically (human, UniProt P21802-3 152-378, limits assumed); test: SPR (Biacore T100), antibody captured on anti-human IgG Fc, rhFGFR2β-IIIb-cleaved as analyte, 25 C
T1 construct: also called rhFGFR2β-IIIb-cleaved; monomeric recombinant human FGFR2 beta IIIb
T1 sequence (P21802 other isoform, or with tags, fused parts or gaps limits assumed): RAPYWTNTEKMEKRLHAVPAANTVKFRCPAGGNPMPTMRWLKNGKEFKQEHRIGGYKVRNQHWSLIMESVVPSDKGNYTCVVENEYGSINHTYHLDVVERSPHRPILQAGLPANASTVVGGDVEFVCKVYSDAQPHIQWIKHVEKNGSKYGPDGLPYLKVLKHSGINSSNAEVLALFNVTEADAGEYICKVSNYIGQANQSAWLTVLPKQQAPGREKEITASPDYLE
Experimental: (§1) Goat anti-human IgG Fc (Jackson ImmunoResearch, Catalog No. 109-005-098) was immobilized on carboxymethylated dextran CM4 sensor chips (Biacore) by amine coupling (Biacore) using a standard coupling protocol according to the vendor's instructions. The analyses were performed at 25° C. and 37° C. using PBS (Invitrogen) containing 0.05% surfactant P20 (Biacore) as running buffer.
(§2) Purified antibodies were captured in individual flow cells at a flow rate of 10 μl/minute. Injection time was varied for each antibody to yield an Rₘₐₓ between 30 and 90 RU. […] The dissociation phase was monitored for up to 900 seconds. The surface was then regenerated with two 60 second injections of glycine pH 2.25 (made from glycine pH 2.0 (Biacore) and pH 2.5 (Biacore)) at 30 μl/minute. Experiments were conducted using concentrations of rhFGFR2β-IIIb-cleaved between 20 and 1.25 nM (a two-fold serial dilution).
(§3) Kinetic parameters were determined using the kinetic function of the BlAevaluation software (Biacore) with double reference subtraction. Kinetic parameters for each antibody, kₐ (association rate constant), kd (dissociation rate constant) and KD (equilibrium dissociation constant) were determined.

[2] = target: T1, recombinant human FGFR2 beta (IIIb)/Fc …; test: SPR (Biacore T100), antibody captured on anti-human IgG Fc, rhFGFR2β-IIIb-cleaved as analyte, 37 C
Experimental: as §1, §2

[3] = target: T2, recombinant human FGFR2 beta (IIIb)/Fc Chimera (human, UniProt P21802-3 152-378); test: SPR (Biacore T100), antibody captured on anti-mouse IgG, FGFR protein as analyte, 37 C
T2 construct: Bought from R&D Systems; the IIIb isoform applies; also called rhFGFR2β-IIIb-Fc; human FGFR2-IIIb; Fc part of the bought chimera not given
T2 sequence (P21802 other isoform, or with tags, fused parts or gaps mutant): as the sequence (P21802 other isoform, or with tags, fused parts or gaps limits assumed) above
Experimental: (§4) Rabbit anti-mouse IgGs (GE Healthcare) were immobilized on carboxymethylated dextran CM4 sensor chips (GE Healthcare) by amine coupling, using a standard coupling protocol, according to the vendor's instructions (GE Healthcare). The analyses were performed at 25° C. and 37° C., using PBS containing 0.05% surfactant P20 (GE Healthcare) as running buffer.
(§5) The antibodies were captured in individual flow cells at a flow rate of 10 μl/min. Injection time was varied for each antibody to yield an Rmax between 30 and 60 RU. […] The dissociation phase was monitored for up to 900 seconds. The surface was then regenerated with two 60-second injections of 10 mM Glycine-HCl (pH 1.7), at a flow rate of 60 μl/minute. The FGFR protein concentration range tested was 50 to 3.125 nM (two-fold dilutions).
as §3, with “BlAevalutation” for “BlAevaluation”, “(GE Healthcare)” for “(Biacore)”

[4] = target: T1, recombinant human FGFR2 beta (IIIb)/Fc …; test: as above
Experimental: as §4, §5
as §3, with “BlAevalutation” for “BlAevaluation”, “(GE Healthcare)” for “(Biacore)”

[5] = target: T2, recombinant human FGFR2 beta (IIIb)/Fc …; test: SPR (Biacore T100), antibody captured on anti-mouse IgG, FGFR protein as analyte, 25 C
Experimental: as §4, §5
as §3, with “BlAevalutation” for “BlAevaluation”, “(GE Healthcare)” for “(Biacore)”

[6] = target: T3, recombinant human FGFR1 beta (IIIb)/Fc Chimera (human, UniProt P11362-19 120-376); test: as above
T3 construct: Treated as one reagent; also called rhFGFR1β-IIIc-Fc; rhFGFR1β-IIIb-Fc; Fc part of the bought chimera not given
T3 sequence (looked up): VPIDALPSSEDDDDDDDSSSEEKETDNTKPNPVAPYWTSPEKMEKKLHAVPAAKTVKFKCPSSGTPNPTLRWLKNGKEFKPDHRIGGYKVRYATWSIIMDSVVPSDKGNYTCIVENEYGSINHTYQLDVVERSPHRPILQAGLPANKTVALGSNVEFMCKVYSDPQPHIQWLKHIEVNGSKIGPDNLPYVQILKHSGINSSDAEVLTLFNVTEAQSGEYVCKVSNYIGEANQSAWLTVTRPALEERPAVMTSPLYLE
Experimental: as §4, §5
as §3, with “BlAevalutation” for “BlAevaluation”, “(GE Healthcare)” for “(Biacore)”

[7] = target: T1, recombinant human FGFR2 beta (IIIb)/Fc …; test: as above
Experimental: as §4, §5
as §3, with “BlAevalutation” for “BlAevaluation”, “(GE Healthcare)” for “(Biacore)”

B1: Hu4B9-82 (antibody)
heavy: not shown
light: EIVLTQSPATLSLSPGERATLSCRASSSVNYMYWYQQKPGQAPRPWIYLTSNRATGIPARFSGSGSGTDYTLTISSLEPEDFAVYYCQQWSSNPYTFGQGTKLEIKRTVAAPSVFIFPPSDEQLKSGTASVVCLLNNFYPREAKVQWKVDNALQSGNSQESVTEQDSKDSTYSLSSTLTLSKADYEKHKVYACEVTHQGLSSPVTKSFNRGEC
notes: Humanized IgG1 kappa
Kd [1]: 0.49 nM | koff [1]: 9.4e-05 s⁻¹ | kon [1]: 190000 M⁻¹ s⁻¹ | Kd [2]: 0.93 nM | koff [2]: 0.00036 s⁻¹ | kon [2]: 400000 M⁻¹ s⁻¹

B4: antibody 4B9 (antibody)
heavy: EVQLQQSGTVLARPGASVKMSCKTSGYTFTSYWMHWVKQRPGQGLEWIGAIYPGNSDTDYSQKFKGKATLTAVTSATTAYMELSSLTNEDSAVYYCSKFDYWGQGTTLTVSSAKTTPPSVYPLAPGSAAQTNSMVTLGCLVKGYFPEPVTVTWNSGSLSSGVHTFPAVLQSDLYTLSSSVTVPSSTWPSQTVTCNVAHPASSTKVDKKIVPRDCGCKPCICTVPEVSSVFIFPPKPKDVLTITLTPKVTCVVVDISKDDPEVQFSWFVDDVEVHTAQTQPREEQFNSTFRSVSELPIMHQDWLNGKEFKCRVNSAAFPAPIEKTISKTKGRPKAPQVYTIPPPKEQMAKDKVSLTCMITDFFPEDITVEWQWNGQPAENYKNTQPIMDTDGSYFVYSKLNVQKSNWEAGNTFTCSVLHEGLHNHHTEKSLSHSPGK
light: QIVLTQSPALMSASPGEKVTMTCSASSSVNYMYWYQQKPRSSPKPWIYLTSNLASGVPARFSGRGSGTSYSLTISSMEAEDAATYYCQQWSSNPYTFGGGTKLEIKRADAAPTVSIFPPSSEQLTSGGASVVCFLNNFYPRDINVKWKIDGSERQNGVLNSWTDQDSKDSTYSMSSTLTLTKDEYERHNSYTCEATHKTSTSPIVKSFNRNEC
notes: Murine IgG1 kappa from hybridoma clone 4B9; also called GP369; monoclonal antibody 4B9
Kd [3]: 2.96 nM | Kd [4]: 1.2 nM | koff [4]: 0.000223 s⁻¹ | kon [4]: 254000 M⁻¹ s⁻¹ | Kd [5]: 0.61 nM | koff [5]: 4.6e-05 s⁻¹ | kon [5]: 94000 M⁻¹ s⁻¹ | binding result [6]: no binding (tested: 50 to 3.125 nM tested) | Kd [7]: 4.2 nM

Now from value to binder:

Kd [1]: 0.26 nM | koff [1]: 6.5e-05 s⁻¹ | kon [1]: 240000 M⁻¹ s⁻¹ | Kd [2]: 0.89 nM | koff [2]: 0.00028 s⁻¹ | kon [2]: 370000 M⁻¹ s⁻¹
B2: Hu4B9-65 (antibody)
heavy: not shown
light: B1 light with I57V
notes: Humanized IgG1 kappa

Kd [1]: 0.35 nM | koff [1]: 8.9e-05 s⁻¹ | kon [1]: 260000 M⁻¹ s⁻¹ | Kd [2]: 0.92 nM | koff [2]: 0.00029 s⁻¹ | kon [2]: 320000 M⁻¹ s⁻¹
B3: Hu4B9-83 (antibody)
heavy: not shown
light: B1 light with Y70F
notes: Humanized IgG1 kappa
